Test results reported in the DeepSol protein solubility set.

test: soluble on expression in E. coli; label from the status in PepcDB or PDB records

Sequence | soluble on expression in E. coli
MEHIRRVAELAREIARNNGLDPERAYLAGLLHDAARDLPEEELRRLAPPENEVEEAHPLALHGRAARALAASWGVRDEEVLEAIEGHVYGVDPENGIGMALYVADVSEPGRGVNEEIRELALAGRLKEAYRLAVRNKVHYLKAKKIPIHPRTLEVYHSL | soluble
MEHTIAVIPGSFDPITYGHLDIIERSTDRFDEIHVCVLKNSKKEGTFSLEERMDLIEQSVKHLPNVKVHQFSGLLVDYCEQVGAKTIIRGLRAVSDFEYELRLTSMNKKLNNEIETLYMMSSTNYSFISSSIVKEVAAYRADISEFVPPYVEKALKKKFK | not soluble
MEIEVVYQHSDFIIINKSEGISVHKDQEEQGLTELVAKQLNVPKVWLVHRLDKVTSGLLILALNAESAAEFSRLFSEHKIHKTYLALSNQKPKKKQGLIIGDMKKAREGAWKLCQTKDNPAITRFESVSCEPNLRLFILKPQTGKTHQLRVAMKSLGSPILGDGLYGKNTEKIDRTYLHATQLEFDYLNNFISVTCLPSQGQFWIKPTVFEQIQVYLTKPFLSKLEHHHHHH | soluble
MEIGQRVRINFEVATVRYIGEVDGYGSQRWVGLEWDDPTRGKHDGIVRGKRYFQTRHPNGGSLMKHEIVPKPTDLLFEIKDRYIEEESVETEIELAQSNKKIELIGMDQTAAKQSNIEKLINIVLDNRSVGFPPSSDSPQFILCRELNLYGNLLYKWKTVRQILEYFPRIQELNLRRNRMQCFNEEEDDDESEGDDHVYSDSCKKLVISECNLSENSIDSILLRFPSTSDVVAFGNDLTRFSVSEAVSSRLTSLDLEDNPFKTLDSIHGTFPNLTQLSVANCGITSLNGFDGSIKFPKLEYLNIKRNSIVEWKSVNSIRSLKSLKRLLFDCKKLSTEKGVHAYEIVIAKLSTLIDLNRFDVSEVERRSAEIRFLNKYAGLNDNEDHQDDIKRLIEIHGEPTLDTAKKGLAVVKIRIECGNRVETRRLPLGMSIQKIRDMLARLFKVPNTSKIRLYLVMSEKAKQHRIELENPLREFGHYSPSEDRDILVVEHD | not soluble
MEIKEITIIGGYDKNGNPEPVREVTIKRGEIVGVVGPTGSGKSNLISDIEQLAQGDTISKRRILVNGEVPPIEMRRDPKKRRIAQLSQNMNFLADMTVEEFILMHAKSRGVYRENIVDEVIELANRLTGEPIKKDYNLTILSGGQSRSLMVADVAVISDSPIVLIDEIENAGIKKHEALELLAGYGKIVLVITHDPVLALMTDRRIVMRNGGMQKIIETTEEEKEISRKINEVDNWLLSLREKIRFGERLTHEDISLMVKG | soluble
MEIKLEEILKKQPLYSGKAKSIYEIDDDKVLIEFRDDITAGNGAKHDVKQGKGYLNALISSKLFEALEENGVKTHYIKYIEPRYMIAKKVEIIPIEVIVRNIAAGSLCRRYPFEEGKELPFPIVQFDYKNDEYGDPMLNEDIAVALGLATREELNKIKEIALKVNEVLKKLFDEKGIILVDFKIEIGKDREGNLLVADEISPDTMRLWDKETRDVLDKDVFRKDLGDVIAKYRIVAERLGLL | soluble
MEIKMAKDYGFCFGVKRAIQIAEKNQNSLIFGSLIHNAKEINRLEKNFNVKIEEDPKKIPKNKSVIIRTHGIPKQDLEYLKNKGVKITDATCPYVIKPQQIVESMSKEGYQIVLFGDINHPEVKGVISYATNQALVVNSLEELQEKKLQRKVALVSQTTKQTPKLLQIASYLVERCTEVRIFNTICNATSYNQKAALDLSKEVDIMIVVGGKTSSNTKQLLSIAKQHCKDSYLVEDENELELAWFKDKKLCGITAGASTPDWIIENVKQKISTILEHHHHHH | not soluble
MEILQFIGYGNMAQAILEGAHEILSKRFILEITGRNPEKIAPFLQEKNIQAQIVPYKDAIDIHQKFVFLLFKPYNLKDFNYQGQAKSVLSALAGVGFKALSDAIDSLHYLKCMPNIASKFALSSTAVCEKSPMPLISQKALSVIESFGNCVRVGHEELVDASVATNGSALAFLSLVANSLKDAGIREGLNARGSLELVKMSFKGFAKLLEKERPEMIIEQICTPKGATIEGLSVLEKKGVRGAFIEACHKSVKKMRLLEHHHHHH | not soluble
MEILSDMWKEKITFIGINIDDEKSWKKFSQKNIKWITLNDPKEAFGLYIRYKANGIPFYVLVTPDGRISDIWYGYNKDSLSERLKQGVK | not soluble
MEITDVRIRKIDSEGKMKAVVSVTFDNEFVVHDIKVIESQNGLFIAMPSRKAPDGEFRDIAHPINAETRSKIQTAILDKYESICAGSTETEGNN | soluble
